34 substances from patent US20230227838A1, “ENHANCED CELL SURVIVAL AGAINST BIOTIC AND ABIOTIC STRESSES THROUGH SALICYLICK ACID-INDUCED NPR1 CONDENSATES” (priority 2020, published 2023) can be followed below.

The experiment has as its target sim3-GFP (Arabidopsis thaliana) (UniProt P93002). In words: sim3-GFP IP, LC-MS/MS.

Chain of sim3-GFP (Arabidopsis thaliana) (P93002 other isoform, or with tags, fused parts or gaps): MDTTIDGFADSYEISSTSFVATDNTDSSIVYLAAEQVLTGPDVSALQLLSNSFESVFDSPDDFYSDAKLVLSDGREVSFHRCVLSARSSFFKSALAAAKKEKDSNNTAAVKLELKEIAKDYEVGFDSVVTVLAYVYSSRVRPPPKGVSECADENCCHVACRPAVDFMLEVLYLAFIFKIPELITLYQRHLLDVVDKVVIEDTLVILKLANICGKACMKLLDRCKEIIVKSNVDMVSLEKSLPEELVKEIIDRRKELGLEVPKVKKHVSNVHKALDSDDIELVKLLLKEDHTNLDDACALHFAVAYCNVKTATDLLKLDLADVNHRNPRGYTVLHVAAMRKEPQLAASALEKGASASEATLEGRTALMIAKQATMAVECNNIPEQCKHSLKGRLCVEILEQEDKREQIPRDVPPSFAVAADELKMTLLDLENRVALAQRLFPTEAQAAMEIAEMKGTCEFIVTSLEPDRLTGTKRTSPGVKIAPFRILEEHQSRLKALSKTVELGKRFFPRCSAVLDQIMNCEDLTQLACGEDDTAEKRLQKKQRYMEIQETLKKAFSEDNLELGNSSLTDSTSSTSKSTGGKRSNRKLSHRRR
Chain of ATCNX1, CNX1, calnexin 1 (P29402 21-530): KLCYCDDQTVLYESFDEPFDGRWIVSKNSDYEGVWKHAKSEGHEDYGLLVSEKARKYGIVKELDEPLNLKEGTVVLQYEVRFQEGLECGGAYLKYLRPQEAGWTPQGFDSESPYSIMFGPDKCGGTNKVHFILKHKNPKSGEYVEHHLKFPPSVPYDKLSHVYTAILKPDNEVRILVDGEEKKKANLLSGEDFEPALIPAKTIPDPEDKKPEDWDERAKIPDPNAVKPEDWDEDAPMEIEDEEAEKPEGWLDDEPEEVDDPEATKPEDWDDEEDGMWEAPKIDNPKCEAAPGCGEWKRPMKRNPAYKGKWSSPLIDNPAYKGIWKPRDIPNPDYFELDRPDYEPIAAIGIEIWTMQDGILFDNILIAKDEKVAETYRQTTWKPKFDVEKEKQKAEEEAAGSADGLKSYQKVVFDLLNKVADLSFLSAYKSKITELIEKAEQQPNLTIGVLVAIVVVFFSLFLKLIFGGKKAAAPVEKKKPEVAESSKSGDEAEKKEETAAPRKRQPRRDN
Chain of EFE, ethylene-forming enzyme (Q06588 whole entry): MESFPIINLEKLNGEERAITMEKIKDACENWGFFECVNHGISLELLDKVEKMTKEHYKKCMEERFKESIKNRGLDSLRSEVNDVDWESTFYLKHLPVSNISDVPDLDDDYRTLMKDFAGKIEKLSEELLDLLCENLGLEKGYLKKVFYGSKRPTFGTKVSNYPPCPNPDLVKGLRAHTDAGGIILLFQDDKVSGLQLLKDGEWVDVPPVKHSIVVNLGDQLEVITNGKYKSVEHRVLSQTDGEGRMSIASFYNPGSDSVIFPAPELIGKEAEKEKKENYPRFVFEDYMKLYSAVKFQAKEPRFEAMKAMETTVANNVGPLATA
Chain of FUS11, Proteasome component (PCI) domain protein (Q8W575 whole entry): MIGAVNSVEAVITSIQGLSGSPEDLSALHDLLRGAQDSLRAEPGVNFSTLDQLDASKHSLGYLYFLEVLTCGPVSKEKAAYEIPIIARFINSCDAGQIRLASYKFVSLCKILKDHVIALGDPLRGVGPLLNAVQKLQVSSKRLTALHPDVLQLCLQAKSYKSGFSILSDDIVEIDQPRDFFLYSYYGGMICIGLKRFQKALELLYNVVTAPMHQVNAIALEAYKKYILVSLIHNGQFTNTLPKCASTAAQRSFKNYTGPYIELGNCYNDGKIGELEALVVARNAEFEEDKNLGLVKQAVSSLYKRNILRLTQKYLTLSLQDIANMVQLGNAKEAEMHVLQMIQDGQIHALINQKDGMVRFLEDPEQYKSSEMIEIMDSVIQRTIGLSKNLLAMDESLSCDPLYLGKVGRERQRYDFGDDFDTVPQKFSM
Chain of ATM1, myosin 1 (Q9LHE9 whole entry): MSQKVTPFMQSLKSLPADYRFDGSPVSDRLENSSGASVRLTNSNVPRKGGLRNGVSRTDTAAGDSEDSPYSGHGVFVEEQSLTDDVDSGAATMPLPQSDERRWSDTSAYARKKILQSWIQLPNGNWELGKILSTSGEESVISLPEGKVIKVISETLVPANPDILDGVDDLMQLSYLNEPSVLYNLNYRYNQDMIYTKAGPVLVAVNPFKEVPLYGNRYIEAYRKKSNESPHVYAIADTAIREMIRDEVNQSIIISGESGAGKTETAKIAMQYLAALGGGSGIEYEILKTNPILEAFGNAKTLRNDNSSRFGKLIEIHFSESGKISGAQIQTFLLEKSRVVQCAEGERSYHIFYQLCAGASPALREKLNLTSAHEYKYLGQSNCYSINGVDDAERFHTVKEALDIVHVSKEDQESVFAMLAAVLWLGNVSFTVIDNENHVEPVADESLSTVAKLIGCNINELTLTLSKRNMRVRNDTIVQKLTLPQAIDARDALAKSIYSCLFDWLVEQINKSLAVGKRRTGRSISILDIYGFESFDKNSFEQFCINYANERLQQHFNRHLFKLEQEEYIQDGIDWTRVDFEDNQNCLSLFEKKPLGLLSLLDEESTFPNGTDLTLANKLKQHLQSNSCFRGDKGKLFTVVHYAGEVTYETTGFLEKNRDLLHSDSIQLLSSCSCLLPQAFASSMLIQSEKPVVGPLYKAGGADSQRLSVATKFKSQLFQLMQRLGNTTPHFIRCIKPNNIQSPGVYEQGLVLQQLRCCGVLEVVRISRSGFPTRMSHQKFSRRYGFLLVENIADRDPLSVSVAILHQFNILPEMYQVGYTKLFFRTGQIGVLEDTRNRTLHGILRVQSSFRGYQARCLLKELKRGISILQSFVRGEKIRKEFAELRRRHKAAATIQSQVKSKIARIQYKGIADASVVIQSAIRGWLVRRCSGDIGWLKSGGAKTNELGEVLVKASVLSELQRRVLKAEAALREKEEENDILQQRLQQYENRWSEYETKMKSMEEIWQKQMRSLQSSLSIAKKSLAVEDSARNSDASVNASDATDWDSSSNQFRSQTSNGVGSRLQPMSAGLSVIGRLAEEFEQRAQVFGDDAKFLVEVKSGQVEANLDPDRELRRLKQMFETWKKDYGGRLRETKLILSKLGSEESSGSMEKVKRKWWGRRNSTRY
Chain of CYP51, CYTOCHROME P450 51G1 (Q9SAA9 whole entry): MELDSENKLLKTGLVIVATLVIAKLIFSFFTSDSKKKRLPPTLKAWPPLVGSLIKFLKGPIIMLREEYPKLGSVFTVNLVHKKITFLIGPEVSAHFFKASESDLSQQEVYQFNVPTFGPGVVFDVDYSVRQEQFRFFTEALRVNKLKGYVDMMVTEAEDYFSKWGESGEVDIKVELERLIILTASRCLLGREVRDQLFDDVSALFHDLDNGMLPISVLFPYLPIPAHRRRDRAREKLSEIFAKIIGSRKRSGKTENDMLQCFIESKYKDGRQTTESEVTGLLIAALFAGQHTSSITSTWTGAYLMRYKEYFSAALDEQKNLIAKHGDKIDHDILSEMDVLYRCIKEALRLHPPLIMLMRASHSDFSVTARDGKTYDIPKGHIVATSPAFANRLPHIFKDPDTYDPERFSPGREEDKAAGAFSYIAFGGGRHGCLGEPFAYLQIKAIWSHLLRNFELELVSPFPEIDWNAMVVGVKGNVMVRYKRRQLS
Chain of CER3, FLP1, WAX2, YRE, Fatty acid hydroxylase superfamily (Q8H1Z0 whole entry): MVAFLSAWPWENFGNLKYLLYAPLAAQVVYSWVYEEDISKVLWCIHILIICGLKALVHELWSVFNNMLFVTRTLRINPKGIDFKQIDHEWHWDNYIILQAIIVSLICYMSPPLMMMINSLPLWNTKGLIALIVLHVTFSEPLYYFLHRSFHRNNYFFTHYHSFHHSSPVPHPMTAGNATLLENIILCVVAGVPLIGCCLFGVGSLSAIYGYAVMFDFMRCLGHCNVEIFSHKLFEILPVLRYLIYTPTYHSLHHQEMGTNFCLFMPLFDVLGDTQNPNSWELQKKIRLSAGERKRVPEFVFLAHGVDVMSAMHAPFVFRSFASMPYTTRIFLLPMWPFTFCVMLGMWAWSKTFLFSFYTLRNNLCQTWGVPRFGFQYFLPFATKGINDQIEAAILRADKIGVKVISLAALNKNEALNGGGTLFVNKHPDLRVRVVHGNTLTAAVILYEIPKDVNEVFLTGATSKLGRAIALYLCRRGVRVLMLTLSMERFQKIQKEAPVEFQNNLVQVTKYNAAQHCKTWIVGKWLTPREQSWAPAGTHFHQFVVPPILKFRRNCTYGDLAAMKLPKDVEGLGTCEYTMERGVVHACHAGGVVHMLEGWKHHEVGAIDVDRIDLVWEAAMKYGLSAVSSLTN
Chain of AGD5, NEV, ARF-GAP domain 5 (Q9FL69 whole entry, the tested form may be a part): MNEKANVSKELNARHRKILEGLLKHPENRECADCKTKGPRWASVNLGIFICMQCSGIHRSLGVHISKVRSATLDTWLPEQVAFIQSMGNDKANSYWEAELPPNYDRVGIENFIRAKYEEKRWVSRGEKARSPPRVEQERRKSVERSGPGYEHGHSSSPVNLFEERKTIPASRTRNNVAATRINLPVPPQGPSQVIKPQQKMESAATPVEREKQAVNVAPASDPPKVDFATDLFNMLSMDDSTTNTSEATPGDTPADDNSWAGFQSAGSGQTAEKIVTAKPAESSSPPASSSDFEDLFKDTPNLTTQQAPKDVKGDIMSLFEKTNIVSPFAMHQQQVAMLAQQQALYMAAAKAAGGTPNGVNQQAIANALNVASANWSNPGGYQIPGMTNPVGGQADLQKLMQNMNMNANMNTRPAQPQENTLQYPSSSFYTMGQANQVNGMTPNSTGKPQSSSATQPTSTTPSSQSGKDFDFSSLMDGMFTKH

As to AGD5, NEV, ARF-GAP domain 5, the Normalized Fold Change: SA vs Mock was 8.65 fold. In the case of “AOAT2, GGT2, alanine-2-oxoglutarate aminotransferase 2”, the Normalized Fold Change: SA vs Mock was found to be 10.5 fold. For AT3G47630 the value was 703 fold.

Regarding AT3G53470, the Normalized Fold Change: SA vs Mock amounted to 4.35 fold. In the case of ATCNX1, CNX1, calnexin 1 it was 5.26 fold.

Substance ATM1, myosin 1 displayed a Normalized Fold Change: SA vs Mock of 2.33 fold. For “ATMDAR2, Pyridine nucleotide-disulphide oxidoreductase family protein” the value was 2.75 fold; for “ATPAD4, PAD4, alpha/beta-Hydrolases superfamily protein (from UniProt Q9S745 1-541)”, 3.23 fold.

Regarding “ATR4, CYP83B1, RED1, RNT1, SUR2, cytochrome P450, family 83, subfamily B, polypeptide 1 (from UniProt O65782 1-499)”, the Normalized Fold Change: SA vs Mock stood at 2.42 fold.

“ATSPS4F, Sucrose-phosphate synthase family protein” came in with a Normalized Fold Change: SA vs Mock of 2.2 fold. Turning to BCS1, cytochrome BC1 synthesis, the Normalized Fold Change: SA vs Mock turned out to be 16 fold.

Turning to “CAM7, calmodulin 7 (from UniProt P59220 1-149)”, the Normalized Fold Change: SA vs Mock came to 3.96 fold. In the case of “CAND1, cullin-associated and neddylation dissociated (from UniProt Q8L5Y6 2-1219)” it was 42.1 fold.

The substance “CER3, FLP1, WAX2, YRE, Fatty acid hydroxylase superfamily” yielded a Normalized Fold Change: SA vs Mock of 3320 fold. In the case of “CTF2B, FAD/NAD(P)-binding oxidoreductase family protein” it was 3.15 fold. Take CYP51, CYTOCHROME P450 51G1: the Normalized Fold Change: SA vs Mock turned out to be 2.8 fold. For “DDB1A, damaged DNA binding protein 1A (from UniProt Q9M0V3 1-1088)”, the Normalized Fold Change: SA vs Mock was found to be 2.52 fold. In turn, “DDB1B, damaged DNA binding protein 1B (from UniProt O49552 1-1088)” gave a Normalized Fold Change: SA vs Mock of 1620 fold. As for “Disease resistance protein (TIR-NBS class) (AT1G66090)”, the Normalized Fold Change: SA vs Mock is 6.26 fold. For “Disease resistance protein (TIR-NBS class) (AT3G04210)”, the Normalized Fold Change: SA vs Mock amounted to 7.6 fold.

With “Disease resistance protein (TIR-NBS-LRR class) (AT4G19510)”, the Normalized Fold Change: SA vs Mock was 5.17 fold. For “Disease resistance protein (TIR-NBS-LRR class) (AT5G41750)” the value was 10.2 fold; for EDA10, 2.22 fold; for “EDA39, calmodulin-binding family protein”, 3.1 fold. EDS1, enhanced disease susceptability came in with a Normalized Fold Change: SA vs Mock of 3.18 fold.

The substance EFE, ethylene-forming enzyme came in with a Normalized Fold Change: SA vs Mock of 2.16 fold. Consider ERF1-2, eukaryotic release factor 1-2, for which the Normalized Fold Change: SA vs Mock was found to be 2.5 fold. “FAD/NAD(P)-binding oxidoreductase family protein (AT5G22140)”: the Normalized Fold Change: SA vs Mock turned out to be 9.82 fold. For “FUS11, Proteasome component (PCI) domain protein” the value was 2.75 fold; for Fes1A, 3.16 fold; for GDH1, glutamate dehydrogenase 1, 86.4 fold. Consider “GSTF6, glutathione S-transferase 6 (from UniProt P42760 1-208)”, for which the Normalized Fold Change: SA vs Mock stood at 2.01 fold. Turning to “GSTU19, glutathione S-transferase TAU 19 (from UniProt Q9ZRW8 1-219)”, the Normalized Fold Change: SA vs Mock is 2.58 fold. In the case of HSP70, heat shock protein 70 it was 4.72 fold.
